Data on 51 variants can be found in the RNAGym collection of RNA variant scans (doi:10.1101/gr.219683.116).

The labels stand for the following.
B1: mRNA-splicing (parent)
chain: AGUUGCUGCUGGGAGCUCCAGCACAGUGAAAUGGACAGAAGGGCAGAGCAA

The variants in this series derive from B1. Briefly: exon inclusion enrichment index; higher = more inclusion; WT1 exon 5 minigene, HEK293.
As to AGUUUCACUUGGGAGCUCCAGCACAGUGAAAUGGACAGAAGGGCAGAGCAA [G5U U7A G8C C9U], the “exon inclusion enrichment index” value turned out to be 0.582.
For AGUUUCCCUUGGGAGCUCCAGCACAGUGAAAUGGACAGAAGGGCAGAGCAA [G5U U7C G8C C9U] the value was 0.364; for AGUUGAUAAAGGGAGCUCCAGCACAGUGAAAUGGACAGAAGGGCAGAGCAA [C6A G8A C9A U10A], 0.0495.
For AGUUGAUAACGGGAGCUCCAGCACAGUGAAAUGGACAGAAGGGCAGAGCAA [C6A G8A C9A U10C] the value was 0.666; for AGUUUCUUUUGGGAGCUCCAGCACAGUGAAAAGGACAGAAGGGCAGAGCAA [G5U G8U C9U U32A], 0.11.
Regarding AGUUUCUUUUGGGAGCUCCAGCACAGUGAAAGGGACAGAAGGGCAGAGCAA [G5U G8U C9U U32G], the “exon inclusion enrichment index” value was 0.00207.
To AGUUUCUUUUGGGAGCUCCAGCACAGUGAAACGGACAGAAGGGCAGAGCAA [G5U G8U C9U U32C] belongs 0.344; to AGUUUCUUUUGGGAGCUCCAGCACAGUGAAACAGACAGAAGGGCAGAGCAA [G5U G8U C9U U32C G33A], 0.0483; to AGUUUCUUUUGGGAGCUCCAGCACAGUGAAACCGACAGAAGGGCAGAGCAA [G5U G8U C9U U32C G33C], 0.216.
For AGUUUCUUUUGGGAGCUCCAGCACAGUGAAACUGACAGAAGGGCAGAGCAA [G5U G8U C9U U32C G33U] the value was 0.0499; for AGUUUCCGCCGGGAGCUCCAGCACAGUGAAAUGGACAGAAGGGCAGAGCAA [G5U U7C U10C], 3.02.
As to AGUUUCUUUGGGGAGCUCCAGCACAGUGAAAUGGACAGAAGGGCAGAGCAA [G5U G8U C9U U10G], the “exon inclusion enrichment index” value amounted to 0.095.
To AGUUUCUUUAGGGAGCUCCAGCACAGUGAAAUGGACAGAAGGGCAGAGCAA [G5U G8U C9U U10A] belongs 0.00828; to AGUUUCUUUCGGGAGCUCCAGCACAGUGAAAUGGACAGAAGGGCAGAGCAA [G5U G8U C9U U10C], 0.561.
For AGUUUCAAUUGGGAGCUCCAGCACAGUGAAAUGGACAGAAGGGCAGAGCAA [G5U U7A G8A C9U] the value was 0.454; for AGUUUCUUUUGGGAGCGACAGCACAGUGAAAUGGACAGAAGGGCAGAGCAA [G5U G8U C9U U17G C18A], 0.124; for AGUUUCUUUUGGGAGCGUCAGCACAGUGAAAUGGACAGAAGGGCAGAGCAA [G5U G8U C9U U17G C18U], 0.0929.
To AGUUUCUUUUGGGAGCGGCAGCACAGUGAAAUGGACAGAAGGGCAGAGCAA [G5U G8U C9U U17G C18G] belongs 0.13.
For the variant AGUUUCUUCCGGGAGCUCCAGCACAGUGAAAUGGACAGAAGGGCAGAGCAA [G5U G8U U10C], the “exon inclusion enrichment index” value was 1.8.
On to AGUUUCUUCGGGGAGCUCCAGCACAGUGAAAUGGACAGAAGGGCAGAGCAA [G5U G8U U10G], for which the “exon inclusion enrichment index” value was found to be 1.8.
Consider AGUUUCUUCAGGGAGCUCCAGCACAGUGAAAUGGACAGAAGGGCAGAGCAA [G5U G8U U10A], for which the “exon inclusion enrichment index” value came to 0.444.
To AGUUUCUUUUGGGAGCUCCAGCACAGUGAAAUGGACAGAAGGUGAGAGCAA [G5U G8U C9U G43U C44G] belongs 0.112.
Turning to AGUUUCUUUUGGGAGCUCCAGCACAGUGAAAUGGACAGAAGGUAAGAGCAA [G5U G8U C9U G43U C44A], the “exon inclusion enrichment index” value was found to be 0.0152.
For AGUUUCUUUUGGGAGCUCCAGCACAGUGAAAUGGACAGAAGGUUAGAGCAA [G5U G8U C9U G43U C44U], the “exon inclusion enrichment index” value stood at 0.0283.
To AGUUUCUUUUGGGAGCUCCAGCACAGUGAAAAUGACAGAAGGGCAGAGCAA [G5U G8U C9U U32A G33U] belongs 0.0405.
To AGUUUCUUUUGGGAGCUCCAGCACAGUGAAAACGACAGAAGGGCAGAGCAA [G5U G8U C9U U32A G33C] belongs 0.219; to AGUUUCUUUUGGGAGCUCCAGCACAGUGAAAAAGACAGAAGGGCAGAGCAA [G5U G8U C9U U32A G33A], 0.0443.
For AGUUGAUGCUGGGAGCUCCAGCACAGUGAAAUGGACAGAAGGGCAGAGCAA [C6A], the “exon inclusion enrichment index” value was determined as 0.079.
Turning to AGUUUCUUUUGGGAGCUCCAGCACAGUGAAAGAGACAGAAGGGCAGAGCAA [G5U G8U C9U U32G G33A], the “exon inclusion enrichment index” value is 0.0116.
For AGUUUCUUUUGGGAGCUCCAGCACAGUGAAAGCGACAGAAGGGCAGAGCAA [G5U G8U C9U U32G G33C] the value was 0.0926.
To AGUUUCUUUUGGGAGCUCCAGCACAGUGAAAGUGACAGAAGGGCAGAGCAA [G5U G8U C9U U32G G33U] belongs 0.0291; to AGUUUCUUUUGGGAGCUCCAGCACAGUGAAAUGGACAGAAGGGCAUCGCAA [G5U G8U C9U G46U A47C], 0.55.
For AGUUUCUUUUGGGAGCUCCAGCACAGUGAAAUGGACAGAAGGGCAUUGCAA [G5U G8U C9U G46U A47U] the value was 0.164; for AGUUUCUUUUGGGAGCUCCAGCACAGUGAAAUGGACAGAAGGGCAUGGCAA [G5U G8U C9U G46U A47G], 0.0739; for AGUUUCUUUUGGGAGCACCAGCACAGUGAAAUGGACAGAAGGGCAGAGCAA [G5U G8U C9U U17A], 0.136.
Consider AGUUUCUUUUGGGAGCGCCAGCACAGUGAAAUGGACAGAAGGGCAGAGCAA [G5U G8U C9U U17G], for which the “exon inclusion enrichment index” value came out at 0.13.
With AGUUUCUUUUGGGAGCCCCAGCACAGUGAAAUGGACAGAAGGGCAGAGCAA [G5U G8U C9U U17C], the “exon inclusion enrichment index” value was 0.0866.
For AGUUUCUUUUGGGAGCUCCAGCACAGUGAAAUGGACAGAAGGGCAUAGCAA [G5U G8U C9U G46U], the “exon inclusion enrichment index” value is 0.0708.
In the case of AGUUUCUUUUGGGAGCUCCAGCACAGUGAAAUGGACAGAAGGGCAAAGCAA [G5U G8U C9U G46A], the “exon inclusion enrichment index” value was found to be 0.192.
For AGUUUCUUUUGGGAGCUCCAGCACAGUGAAAUGGACAGAAGGGCACAGCAA [G5U G8U C9U G46C] the value was 0.148.
As to AGUUUCGAUUGGGAGCUCCAGCACAGUGAAAUGGACAGAAGGGCAGAGCAA [G5U U7G G8A C9U], the “exon inclusion enrichment index” value was 1.04.
To AGUUUCGCUUGGGAGCUCCAGCACAGUGAAAUGGACAGAAGGGCAGAGCAA [G5U U7G G8C C9U] belongs 1.58; to AGUUUCUUUCAGGAGCUCCAGCACAGUGAAAUGGACAGAAGGGCAGAGCAA [G5U G8U C9U U10C G11A], 0.133; to AGUUUCUUUCCGGAGCUCCAGCACAGUGAAAUGGACAGAAGGGCAGAGCAA [G5U G8U C9U U10C G11C], 0.932.
To AGUUUCUUUCUGGAGCUCCAGCACAGUGAAAUGGACAGAAGGGCAGAGCAA [G5U G8U C9U U10C G11U] belongs 0.279; to AGUUUCGGUUGGGAGCUCCAGCACAGUGAAAUGGACAGAAGGGCAGAGCAA [G5U U7G C9U], 0.575.
To AGUUUCGGAUGGGAGCUCCAGCACAGUGAAAUGGACAGAAGGGCAGAGCAA [G5U U7G C9A] belongs 2.09; to AGUUUCAGUUGGGAGCUCCAGCACAGUGAAAUGGACAGAAGGGCAGAGCAA [G5U U7A C9U], 0.173.
Regarding AGUUUCUUUUGGGAGCUCCAGCACAGUGAAAUGGACAGAAGGGCAGACCAA [G5U G8U C9U G48C], the “exon inclusion enrichment index” value is 0.251.
For AGUUUCUUUUGGGAGCUCCAGCACAGUGAAAUGGACAGAAGGGCAGAUCAA [G5U G8U C9U G48U] the value was 0.22; for AGUUUCUUUUGGGAGCUCCAGCACAGUGAAAUGGACAGAAGGGCAGAACAA [G5U G8U C9U G48A], 0.314.
